Blank lines part the entries; values can stand above or below the binder they belong to.
B3: FLAG-tagged hAng-2 (ligand)
chain: YNNFRKSMDSIGKKQYQVQHGSCSYTFLLPEMDNCRSSSSPYVSNAVQRDAPLEYDDSVQRLQVLENIMENNTQWLMKLENYIQDNMKKEMVEIQQNAVQNQTAVMIEIGTNLLNQTAEQTRKLTDVEAQVLNQTTRLELQLLEHSLSTNKLEKQILDQTSEINKLQDKNSFLEKKVLAMEDKHIIQLQSIKEEKDQLQVLVSKQNSIIEELEKKIVTATVNNSVLQKQQHDLMETVNNLLTMMSTSNSAKDPTVAKEEQISFRDCAEVFKSGHTTNGIYTLTFPNSTEEIKAYCDMEAGGGGWTIIQRREDGSVDFQRTWKEYKVGFGNPSGEYWLGNEFVSQLTNQQRYVLKIHLKDWEGNEAYSLYEHFYLSSEELNYRIHLKGLTGTAGKISSISQPGNDFSTKDGDNDKCICKCSQMLTGGWWFDACGPSNLNGMYYPQRQNTNKFNGIKWYYWKGSGYSLKATTMMIRPADF
notes: not shown: FLAG tag

What was measured:
[1] = target: T1, c-Met-Fc (#358-MT/CF, R&D Systems) (human, UniProt P08581 25-932); assay: SPR, Biacore T100; bispecific antibody captured by human Fab binder on CM5, c-Met-Fc as analyte
T1 construct: also called human c-Met/Fc fusion protein (R&D Systems); human c-Met/Fc protein; not shown: Fc part
T1 sequence (P08581 25-932 limits assumed): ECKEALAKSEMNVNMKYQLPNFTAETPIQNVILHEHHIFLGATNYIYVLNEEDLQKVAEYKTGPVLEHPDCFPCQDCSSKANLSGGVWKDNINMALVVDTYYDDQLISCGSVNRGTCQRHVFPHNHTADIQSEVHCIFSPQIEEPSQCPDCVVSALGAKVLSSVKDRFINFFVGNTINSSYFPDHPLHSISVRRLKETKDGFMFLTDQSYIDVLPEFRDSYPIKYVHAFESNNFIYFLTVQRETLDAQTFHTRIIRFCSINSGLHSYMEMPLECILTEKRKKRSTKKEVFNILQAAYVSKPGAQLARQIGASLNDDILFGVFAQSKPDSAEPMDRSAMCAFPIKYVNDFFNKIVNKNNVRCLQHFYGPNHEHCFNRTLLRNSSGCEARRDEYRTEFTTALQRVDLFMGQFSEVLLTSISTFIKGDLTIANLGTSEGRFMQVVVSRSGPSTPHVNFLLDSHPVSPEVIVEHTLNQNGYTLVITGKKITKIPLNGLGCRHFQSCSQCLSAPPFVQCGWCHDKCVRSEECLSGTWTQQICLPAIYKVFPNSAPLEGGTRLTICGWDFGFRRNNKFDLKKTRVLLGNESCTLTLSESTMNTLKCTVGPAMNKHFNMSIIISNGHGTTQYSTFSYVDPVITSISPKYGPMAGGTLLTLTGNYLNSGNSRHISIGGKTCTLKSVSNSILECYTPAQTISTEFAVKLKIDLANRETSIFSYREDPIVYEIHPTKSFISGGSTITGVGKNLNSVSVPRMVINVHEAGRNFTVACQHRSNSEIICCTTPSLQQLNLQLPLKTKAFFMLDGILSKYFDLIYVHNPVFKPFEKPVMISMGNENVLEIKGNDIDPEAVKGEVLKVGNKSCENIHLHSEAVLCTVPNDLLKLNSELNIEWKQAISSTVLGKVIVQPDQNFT
Method: The binding affinity of the anti-c-Met/anti-Ang2 bispecific antibody prepared in Example 1 to c-Met was measured using Biacore T100(GE). For this, a human Fab binder (#28-9583-25, GE Healthcare) was fixed on the surface of CM5 chip (#BR-1005-30, GE) according to manufacturer's manual. About 90˜120 RU of the anti-c-Met/anti-Ang2 bispecific antibody was captured and then, c-Met-Fc (#358-MT/CF, R&D Systems) was added to the captured antibody at various concentrations. Hereto, 10 mM Glycine-HCl (pH 1.5) solution was added, to regenerate the surface. To measure the affinity, the above obtained data were fitted using BIAevaluation software (GE Healthcare, Biacore T100 evaluation software).

[2] = target: T2, recombinant hAng-2 (C-His, R&D Systems) (human, UniProt O15123 19-496); assay: SPR, Biacore T100; C-terminal His-tagged human Ang2 captured by anti-histidine antibody on CM5, MA01 as analyte
T2 construct: Bought protein; also called human Ang-2 protein; C-terminal histidine-tagged human Ang2 (R&D Systems); not shown: C-terminal His tag
T2 sequence: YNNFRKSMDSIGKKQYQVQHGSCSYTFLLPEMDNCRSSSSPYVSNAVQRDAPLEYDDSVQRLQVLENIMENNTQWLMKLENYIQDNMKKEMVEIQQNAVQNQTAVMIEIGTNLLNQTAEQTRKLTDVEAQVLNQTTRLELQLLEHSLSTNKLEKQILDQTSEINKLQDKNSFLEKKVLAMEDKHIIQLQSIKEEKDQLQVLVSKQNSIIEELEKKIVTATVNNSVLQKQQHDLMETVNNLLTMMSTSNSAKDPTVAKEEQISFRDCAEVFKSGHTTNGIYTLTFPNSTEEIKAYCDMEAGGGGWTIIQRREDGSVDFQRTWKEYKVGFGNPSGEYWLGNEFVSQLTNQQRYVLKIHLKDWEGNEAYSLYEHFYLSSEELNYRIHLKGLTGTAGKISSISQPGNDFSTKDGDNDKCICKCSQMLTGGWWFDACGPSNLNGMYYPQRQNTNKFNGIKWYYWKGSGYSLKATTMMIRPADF
Method: The binding affinity of the anti-c-Met/anti-Ang2 bispecific antibody prepared in Example 1 to Ang2 was measured using Biacore T100(GE). For this, an anti-histidine antibody (R&D Systems) was fixed on the surface of CM5 chip (#BR-1005-30, GE) according to manufacturer's manual. C-terminal histidine-tagged human Ang2 (R&D Systems) was captured and then, anti-c-Met/anti-Ang2 bispecific antibody MA01 was added to the captured antigen (Ang2) at various concentrations. Hereto, 10 mM Glycine-HCl (pH 1.5) solution was added, to regenerate the surface. To measure the affinity, the above obtained data were fitted using BIAevaluation software (GE Healthcare, Biacore T100 evaluation software).

FLAG-tagged hAng-2 = target: B3; assay: Ang2-Tie2 competition ELISA: plate coated with hTie2-Fc, 400 ng/ml FLAG-tagged hAng-2 with antibody at varied concentration, detection with anti-FLAG-HRP; blocked ligand/receptor: hTie2-Fc
Method: More specifically, MaxiSorp™ flat-bottom plate (Nunc) of 96-well was coated with hTie2-Fc (R&D Systems) which is a protein bound with 4 μg/ml of Fc of human IgG1. After that, the plate was washed five times with 0.05% (v/v) Tween-20-containing PBS (phosphate buffer saline) and then blocked with 1% (v/v) BSA (bovine serum albumin; Sigma)-containing PBS at a room temperature for 2 hour.
For Ang2:Tie2 competition ELISA, each anti-Ang2 antibody obtained in Example 2 was placed at various concentrations of 400 nM-0.001 nM into each well coated with the hTie-2/Fc fusion protein along with 1% (v/v) BSA and 400 ng/ml of a FLAG-tagged hAng-2 and then, the plate was allowed to react at a room temperature for 2 hours and washed five times with PBST. After that, an anti-FLAG antibody (Sigma) conjugated with HRP diluted in 1% (v/v) BSA-containing PBS at a ratio of 1:5,000 (v/v) was added in an amount of 100 μl to each well to react at a room temperature for 1 hour and then, the plate was washed five times with PBST. Lastly, 100 μl of TMB substrate (Cell Signaling) was added to each well of the plate to induce color development for 3 min. and then, the reaction was ceased by the addition of 100 μl of Stop solution (Cell Signaling) and OD450 values were measured on a plate reader (Molecular Devices). […]

BSA = target: T3, BSA (Bos taurus, UniProt P02769); assay: Complex ELISA: plate coated with BSA, FLAG-Ang2 0.25 ug/ml shown by 10D6 2 ug/ml and anti-mouse IgG-HRP, OD450
T3 construct: commercial preparation; also called Bovine serum albumin; Sigma
T3 sequence (P02769 25-607 limits assumed): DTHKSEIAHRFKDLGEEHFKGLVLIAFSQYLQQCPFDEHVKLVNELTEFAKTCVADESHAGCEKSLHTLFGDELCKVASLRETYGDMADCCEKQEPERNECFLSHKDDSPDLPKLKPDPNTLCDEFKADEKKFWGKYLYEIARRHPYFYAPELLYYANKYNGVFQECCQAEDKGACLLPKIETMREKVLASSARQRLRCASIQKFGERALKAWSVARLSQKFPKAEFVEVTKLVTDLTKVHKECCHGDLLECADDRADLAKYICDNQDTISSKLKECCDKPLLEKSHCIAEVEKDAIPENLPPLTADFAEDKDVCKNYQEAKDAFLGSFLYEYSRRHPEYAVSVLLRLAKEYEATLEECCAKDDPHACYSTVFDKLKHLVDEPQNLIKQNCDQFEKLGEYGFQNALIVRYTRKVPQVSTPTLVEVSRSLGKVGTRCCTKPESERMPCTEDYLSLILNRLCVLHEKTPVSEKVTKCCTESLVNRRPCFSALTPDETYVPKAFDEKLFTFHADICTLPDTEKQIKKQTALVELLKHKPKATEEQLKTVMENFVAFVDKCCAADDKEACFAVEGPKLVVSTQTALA
Method: (§1) A 96-well MaxiSorp™ flat-bottom plate (Nunc) was coated with 4 μg/ml of Tie2-Fc (R&D systems) or BSA (Sigma). Then, the plate was washed five times with 0.05% (v/v) Tween-20-containing PBS (Phosphate Buffer Saline) and blocked with 1% (v/v) BSA (Bovine serum albumin; Sigma)-containing PBS at a room temperature for 2 hours. 0.25 μg/ml of Ang2 and 2 μg/ml of 10D6 antibody were added to each well of the plate, which was allowed to react at a room temperature for 2 hours and then washed five times with PBST. After that, an anti-mouse IgG antibody (Sigma) conjugated with HRP diluted in 1% (v/v) BSA-containing PBS at a ratio of 1:5,000 (v/v) was added in an amount of 100 ul to each well to react at a room temperature for 1 hour and then, the plate was washed five times with PBST. Lastly, 100 ul (microliter) of TMB substrate (Cell Signaling) was added to each well of the plate to induce color development for 3 min. and then, the reaction was ceased by the addition of 100 ul of Stop solution (Cell Signaling) and OD450 values were measured on a plate reader (Molecular Devices).

hTie2-Fc (R&D Systems) = target: T4, hTie2-Fc (R&D Systems) (human, UniProt Q02763 23-745); assay: ELISA, Tie2-Fc coated, Ang2 and 10D6 added, detected with anti-mouse IgG-HRP
T4 construct: Bought fusion protein; also called hTie-2/Fc fusion protein; not shown: Fc of human IgG1
T4 sequence (Q02763 23-745 limits assumed): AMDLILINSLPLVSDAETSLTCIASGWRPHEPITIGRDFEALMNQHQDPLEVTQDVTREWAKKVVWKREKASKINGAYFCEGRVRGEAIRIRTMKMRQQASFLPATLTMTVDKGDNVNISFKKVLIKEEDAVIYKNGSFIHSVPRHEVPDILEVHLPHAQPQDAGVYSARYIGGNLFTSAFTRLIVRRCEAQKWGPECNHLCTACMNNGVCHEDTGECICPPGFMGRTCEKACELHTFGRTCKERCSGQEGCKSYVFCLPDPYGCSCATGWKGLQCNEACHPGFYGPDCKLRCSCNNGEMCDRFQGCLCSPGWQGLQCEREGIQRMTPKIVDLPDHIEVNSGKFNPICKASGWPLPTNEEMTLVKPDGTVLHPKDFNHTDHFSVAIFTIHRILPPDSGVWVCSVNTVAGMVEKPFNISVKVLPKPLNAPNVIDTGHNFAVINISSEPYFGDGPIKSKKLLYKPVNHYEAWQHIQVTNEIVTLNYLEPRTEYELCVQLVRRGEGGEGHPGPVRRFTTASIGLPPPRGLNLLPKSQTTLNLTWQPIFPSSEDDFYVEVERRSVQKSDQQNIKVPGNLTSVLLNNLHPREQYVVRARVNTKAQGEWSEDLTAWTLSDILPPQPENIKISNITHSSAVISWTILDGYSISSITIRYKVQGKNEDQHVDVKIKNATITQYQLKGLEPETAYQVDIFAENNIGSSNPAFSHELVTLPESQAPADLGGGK
Method: as §1

Kd [1]: 0.07 nM
Kd [2]: 71.6 nM
koff [2]: 0.00648 s⁻¹
kon [2]: 90500 M⁻¹ s⁻¹
B1: anti-c-Met/anti-Ang2 bispecific antibody MA01 (bispecific antibody, human IgG2, kappa)
heavy: EVQLVESGGGLVQPGGSLRLSCAASGFTFTDYYMSWVRQAPGKGLEWLGFIRNKANGYTTEYSASVKGRFTISRDNSKNTLYLQMNSLRAEDTAVYYCARDNWFAYWGQGTLVTVSSASTKGPSVFPLAPCSRSTSESTAALGCLVKDYFPEPVTVSWNSGALTSGVHTFPAVLQSSGLYSLSSVVTVPSSNFGTQTYTCNVDHKPSNTKVDKTVERKCCVECPPCPAPPVAGPSVFLFPPKPKDTLMISRTPEVTCVVVDVSHEDPEVQFNWYVDGVEVHNAKTKPREEQFNSTFRVVSVLTVVHQDWLNGKEYKCKVSNKGLPAPIEKTISKTKGQPREPQVYTLPPSREEMTKNQVSLTCLVKGFYPSDIAVEWESNGQPENNYKTTPPMLDSDGSFFLYSKLTVDKSRWQQGNVFSCSVMHEALHNHYTQKSLSLSPGKGGGGSGGGGSQVQLQESGPGLVKPSETLSLTCAVSGYSITSDYAWNWIRQPPGKGLEWMGKISYSGKTDYNPSLKSRSTISRDTSKNQFSLKLSSVTAADTAVYYCARGNFEGAMDYWGQGTLVTVSSGGGGSGGGGSGGGGSDIQMTQSPSSLSASVGDRVTITCKASQSVSNDVAWYQQKPGKAPKLLIYYASNRYPGVPSRFSGSGSGTDFTLTISSLQPEDFATYYCQQDYSSPWTFGGGTKLEIK
light: DIQMTQSPSSLSASVGDRVTITCKSSQSLLASGNQNNYLAWYQQKPGKAPKMLIIWASTRVSGVPSRFSGSGSGTDFTLTISSLQPEDFATYYCQQSYSRPYTFGQGTKVEIKRTVAAPSVFIFPPSDEQLKSGTASVVCLLNNFYPREAKVQWKVDNALQSGNSQESVTEQDSKDSTYSLSSTLTLSKADYEKHKVYACEVTHQGLSSPVTKSFNRGEC

IC50 (read off the curve) (FLAG-tagged hAng-2): ~0.2 nM
B2: 4H10 (antibody, V domains shown)
VH: EVQLLESGGGLVQPGGSLRLSCAASGFTFSSYDMSWVRQAPGKGLEWVSLISPDSSSIYYADSVKGRFTISRDNSKNTLYLQMNSLRAEDTAVYYCAKDLISFWRGGFDYWGQGTLVTVSS
VL: QSVLTQPPSASGTPGQRVTISCSGSSSNIGSNYVNWYQQLPGTAPKLLIYADSNRPSGVPDRFSGSKSGTSASLAISGLRSEDEADYYCGSWDYSLSGYVFGGGTKLTVLG
notes: also called anti-Ang2 antibody 4H10

Binder: B3
binding result (BSA): no binding (tested: 0.25 ug/ml)

binding result (hTie2-Fc (R&D Systems)): binds
B4: Ang2 protein (R&D systems) (ligand)
chain: YNNFRKSMDSIGKKQYQVQHGSCSYTFLLPEMDNCRSSSSPYVSNAVQRDAPLEYDDSVQRLQVLENIMENNTQWLMKLENYIQDNMKKEMVEIQQNAVQNQTAVMIEIGTNLLNQTAEQTRKLTDVEAQVLNQTTRLELQLLEHSLSTNKLEKQILDQTSEINKLQDKNSFLEKKVLAMEDKHIIQLQSIKEEKDQLQVLVSKQNSIIEELEKKIVTATVNNSVLQKQQHDLMETVNNLLTMMSTSNSAKDPTVAKEEQISFRDCAEVFKSGHTTNGIYTLTFPNSTEEIKAYCDMEAGGGGWTIIQRREDGSVDFQRTWKEYKVGFGNPSGEYWLGNEFVSQLTNQQRYVLKIHLKDWEGNEAYSLYEHFYLSSEELNYRIHLKGLTGTAGKISSISQPGNDFSTKDGDNDKCICKCSQMLTGGWWFDACGPSNLNGMYYPQRQNTNKFNGIKWYYWKGSGYSLKATTMMIRPADF
notes: Ang2 as used in the hybridoma screen, the HUVEC assays and the complex ELISA; also called human Ang2 protein; Human Ang-2 protein

Source: US20160053025A1 (SAMSUNG ELECTRONICS, published 2016)
